Data from IntAct's records for PubMed 24947010.

B1: Parkinson disease protein 7 (Homo sapiens), Q99497 (parent)
chain: MASKRALVILAKGAEEMETVIPVDVMRRAGIKVTVAGLAGKDPVQCSRDVVICPDASLEDAKKEGPYDVVVLPGGNLGAQNLSESAAVKEILKEQENRKGLIAAICAGPTALLAHEIGFGSKVTTHPLAKDKMMNGGHYTYSENRVEKDGLILTSRGPGTSFEFALAIVEALNGKEVAAQVKAPLVLKD

Variants of: B1
Details: with rack1_human RACK1, P63244

effect of a mutation on the interaction	Variant
disrupting interaction strength	C106S
decreasing interaction strength	C53S
disrupting interaction strength	C46S
